Article PMC11703230 (bioRxiv, 2025)
Each block holds one binder with its values, some of them ahead of it.

How the values were obtained:
Assay in all cases: cross-linking
cross-linking = biological target: the molecule itself
[1] = biological target: Sir3 winged helix deletion (Sir3 1-850) (S. cerevisiae, UniProt P06701 1-850)
[2] = biological target: Sir2 (untagged final), full-length (S. cerevisiae, UniProt P06700 1-562)
Chain of Sir2 (untagged final), full-length (P06700 whole entry): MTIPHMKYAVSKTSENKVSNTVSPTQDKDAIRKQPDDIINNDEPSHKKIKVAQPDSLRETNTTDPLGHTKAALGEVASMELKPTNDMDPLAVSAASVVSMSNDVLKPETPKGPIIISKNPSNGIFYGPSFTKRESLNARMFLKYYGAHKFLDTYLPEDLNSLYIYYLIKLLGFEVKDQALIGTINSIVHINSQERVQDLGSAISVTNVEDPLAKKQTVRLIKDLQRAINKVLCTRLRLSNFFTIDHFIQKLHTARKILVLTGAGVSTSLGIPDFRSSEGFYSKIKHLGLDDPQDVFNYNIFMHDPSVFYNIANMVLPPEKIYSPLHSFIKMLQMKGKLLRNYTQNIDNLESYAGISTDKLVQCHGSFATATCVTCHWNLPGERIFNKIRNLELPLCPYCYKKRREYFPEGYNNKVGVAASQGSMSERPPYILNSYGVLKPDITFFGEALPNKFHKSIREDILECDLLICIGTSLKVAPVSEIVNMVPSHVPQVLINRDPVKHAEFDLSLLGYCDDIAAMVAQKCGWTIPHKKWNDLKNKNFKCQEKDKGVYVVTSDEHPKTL

Chain of Sir3 winged helix deletion (Sir3 1-850) (P06701 1-850, stated change not applied): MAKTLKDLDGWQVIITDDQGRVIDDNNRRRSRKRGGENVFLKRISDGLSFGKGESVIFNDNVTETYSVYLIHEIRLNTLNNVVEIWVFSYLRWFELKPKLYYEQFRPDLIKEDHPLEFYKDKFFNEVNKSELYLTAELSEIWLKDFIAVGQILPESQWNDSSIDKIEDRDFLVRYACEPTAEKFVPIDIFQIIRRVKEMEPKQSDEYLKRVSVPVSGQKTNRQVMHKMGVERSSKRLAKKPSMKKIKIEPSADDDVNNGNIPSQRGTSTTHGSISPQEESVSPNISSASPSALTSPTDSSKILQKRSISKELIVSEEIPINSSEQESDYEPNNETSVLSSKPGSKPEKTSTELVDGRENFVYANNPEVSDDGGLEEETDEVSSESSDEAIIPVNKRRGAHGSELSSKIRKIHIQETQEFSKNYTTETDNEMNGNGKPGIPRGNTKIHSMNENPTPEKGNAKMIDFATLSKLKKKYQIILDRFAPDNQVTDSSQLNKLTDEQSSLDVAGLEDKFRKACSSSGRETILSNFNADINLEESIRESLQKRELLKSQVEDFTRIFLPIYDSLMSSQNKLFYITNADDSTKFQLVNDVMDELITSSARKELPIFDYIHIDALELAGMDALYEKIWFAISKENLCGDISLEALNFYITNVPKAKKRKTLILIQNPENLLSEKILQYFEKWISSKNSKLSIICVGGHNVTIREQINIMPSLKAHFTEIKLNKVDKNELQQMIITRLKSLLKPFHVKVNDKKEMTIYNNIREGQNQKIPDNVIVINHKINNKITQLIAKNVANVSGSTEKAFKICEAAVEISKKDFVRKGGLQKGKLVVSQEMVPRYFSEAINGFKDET

- binding result [1]: binds
B1: MBP-Sir4(744-1358) (domain or fragment, S. cerevisiae, UniProt P11978 744-1358, looked up)
chain: PGKMELVYVSDSDDSSSDNDSLTDLESLSSGESNEIKVTNDLDTSAEKDQIQAGKWFDPVLDWRKSDRELTKNILWRIADKTTYDKETITDLIEQGIPKHSYLSGNPLTSVTNDICSVENYETSSAFFYQQVHKKDRLQYLPLYAVSTFENTNNTEKNDVTNKNINIGKHSQEQNSSSAKPSQIPTVSSPLGFEETKLSTTPTKSNRRVSHSDTNSSKPKNTKENLSKSSWRQEWLANLKLISVSLVDEFPSELSDSDRQIINEKMQLLKDIFANNLKSAISNNFRESDIIILKGEIEDYPMSSEIKIYYNELQNKPDAKKARFWSFMKTQRFVSNMGFDIQKSCEPVSISTSVKPHVVEPEHMADAKIMPKDILQITKKPLMVKNVKPSSPPDVKSLVQLSTMETKTLPEKKQFDSIFNSNKAKIIPGNGKHASENISLSFSRPASYGYFSVGKRVPIVEDRRVKQLDDITDSNTTEILTSVDVLGTHSQTGTQQSNMYTSTQKTELEIDNKDSVTECSKDMKEDGLSFVDIVLSKAASALDEKEKQLAVANEIIRSLSDEVMRNEIRITSLQGDLTFTKKCLENARSQISEKDAKINKLMEKDFQVNKEIKPY
- binding result (cross-linking): binds

- binding result [2]: binds
B2: MBP-Sir4(1150-1358) (domain or fragment, S. cerevisiae, UniProt P11978 1150-1358, looked up)
chain: KTLPEKKQFDSIFNSNKAKIIPGNGKHASENISLSFSRPASYGYFSVGKRVPIVEDRRVKQLDDITDSNTTEILTSVDVLGTHSQTGTQQSNMYTSTQKTELEIDNKDSVTECSKDMKEDGLSFVDIVLSKAASALDEKEKQLAVANEIIRSLSDEVMRNEIRITSLQGDLTFTKKCLENARSQISEKDAKINKLMEKDFQVNKEIKPY
